Substitutions are numbered along the chain they refer to. In names and notes the source's numbering stands.
B1: λcIDB-AaTadZ (TadZ of Aggregatibacter actinomycetemcomitans fused to the N-terminal DNA-binding domain of λ cI) (natural protein)
chain: MLLLDQETITADSARTITVVSSRDDIQGEVAQTLRTRGLENIEIVKKDFFTSSDEISFSAEDTVGVIIDITHETNIKTIVERVFSVVPQNVWCCVIGDSDSISLSQKLLDEGILYFNSHTQLSQMVEKIILGVDIPRLRDTVKIAVLSCKGGIGASLISSHIANEIVSSKKIPVLLAQGPNGSQDLDLLFDKKLSGNVIEYAPNLDIFNGGLFELTPAATEKYNFIIYDQPIYNVKKDNFIGFLENYNNFVLVVERKIGSLRLAKQFLDECERIRSTSRKPIRTFVCISDNRLEAAKLMAKNDIETLIGSSIDAIIPYVKNTNTKTVLGINLGRDGKKEINSLMLKVIGAISRSSKPKEKQSLFSSFFTKLIKQ
B2: λcIDB-AaTadZ K150R (natural protein)
chain: B1 chain with K150R
B3: λcIDB-AaTadZ A155K (natural protein)
chain: B1 chain with A155K
B4: λcIDB-AaTadZ S156A (natural protein)
chain: B1 chain with S156A
B5: λcIDB-AaTadZ S156T (natural protein)
chain: B1 chain with S156T
B6: λcIDB-AaTadZ K150A (natural protein)
chain: B1 chain with K150A

Target: the molecule itself
Assay: λ cI repressor fusion dimerization assay
For B1, the “% repression of λpR-lacZ” value was 60.1%. For B2, the “% repression of λpR-lacZ” value was 49%. For B3, the “% repression of λpR-lacZ” value was 49.7%. With B4 the “% repression of λpR-lacZ” value was 57.6%. With B5 the “% repression of λpR-lacZ” value was 53.7%. B6 was tested, and the “% repression of λpR-lacZ” value was 60.3%.

Source: paper PMC3305808 (Molecular Microbiology, 2012)
